Laboratory results published in publication PMC4633989.

Target: Nrx-1 C-term peptide (last 10 C-terminal residues of Drosophila Nrx-1) (Drosophila) (UniProt Q3KN41)
Experiment: ITC; Nrx-1 C-term peptide with the PDZ domains of Spn or Syd-1; details in the Supplementary Methods

UniProt Q3KN41, sequence (Q3KN41 whole entry, looked up, the tested form may be a part): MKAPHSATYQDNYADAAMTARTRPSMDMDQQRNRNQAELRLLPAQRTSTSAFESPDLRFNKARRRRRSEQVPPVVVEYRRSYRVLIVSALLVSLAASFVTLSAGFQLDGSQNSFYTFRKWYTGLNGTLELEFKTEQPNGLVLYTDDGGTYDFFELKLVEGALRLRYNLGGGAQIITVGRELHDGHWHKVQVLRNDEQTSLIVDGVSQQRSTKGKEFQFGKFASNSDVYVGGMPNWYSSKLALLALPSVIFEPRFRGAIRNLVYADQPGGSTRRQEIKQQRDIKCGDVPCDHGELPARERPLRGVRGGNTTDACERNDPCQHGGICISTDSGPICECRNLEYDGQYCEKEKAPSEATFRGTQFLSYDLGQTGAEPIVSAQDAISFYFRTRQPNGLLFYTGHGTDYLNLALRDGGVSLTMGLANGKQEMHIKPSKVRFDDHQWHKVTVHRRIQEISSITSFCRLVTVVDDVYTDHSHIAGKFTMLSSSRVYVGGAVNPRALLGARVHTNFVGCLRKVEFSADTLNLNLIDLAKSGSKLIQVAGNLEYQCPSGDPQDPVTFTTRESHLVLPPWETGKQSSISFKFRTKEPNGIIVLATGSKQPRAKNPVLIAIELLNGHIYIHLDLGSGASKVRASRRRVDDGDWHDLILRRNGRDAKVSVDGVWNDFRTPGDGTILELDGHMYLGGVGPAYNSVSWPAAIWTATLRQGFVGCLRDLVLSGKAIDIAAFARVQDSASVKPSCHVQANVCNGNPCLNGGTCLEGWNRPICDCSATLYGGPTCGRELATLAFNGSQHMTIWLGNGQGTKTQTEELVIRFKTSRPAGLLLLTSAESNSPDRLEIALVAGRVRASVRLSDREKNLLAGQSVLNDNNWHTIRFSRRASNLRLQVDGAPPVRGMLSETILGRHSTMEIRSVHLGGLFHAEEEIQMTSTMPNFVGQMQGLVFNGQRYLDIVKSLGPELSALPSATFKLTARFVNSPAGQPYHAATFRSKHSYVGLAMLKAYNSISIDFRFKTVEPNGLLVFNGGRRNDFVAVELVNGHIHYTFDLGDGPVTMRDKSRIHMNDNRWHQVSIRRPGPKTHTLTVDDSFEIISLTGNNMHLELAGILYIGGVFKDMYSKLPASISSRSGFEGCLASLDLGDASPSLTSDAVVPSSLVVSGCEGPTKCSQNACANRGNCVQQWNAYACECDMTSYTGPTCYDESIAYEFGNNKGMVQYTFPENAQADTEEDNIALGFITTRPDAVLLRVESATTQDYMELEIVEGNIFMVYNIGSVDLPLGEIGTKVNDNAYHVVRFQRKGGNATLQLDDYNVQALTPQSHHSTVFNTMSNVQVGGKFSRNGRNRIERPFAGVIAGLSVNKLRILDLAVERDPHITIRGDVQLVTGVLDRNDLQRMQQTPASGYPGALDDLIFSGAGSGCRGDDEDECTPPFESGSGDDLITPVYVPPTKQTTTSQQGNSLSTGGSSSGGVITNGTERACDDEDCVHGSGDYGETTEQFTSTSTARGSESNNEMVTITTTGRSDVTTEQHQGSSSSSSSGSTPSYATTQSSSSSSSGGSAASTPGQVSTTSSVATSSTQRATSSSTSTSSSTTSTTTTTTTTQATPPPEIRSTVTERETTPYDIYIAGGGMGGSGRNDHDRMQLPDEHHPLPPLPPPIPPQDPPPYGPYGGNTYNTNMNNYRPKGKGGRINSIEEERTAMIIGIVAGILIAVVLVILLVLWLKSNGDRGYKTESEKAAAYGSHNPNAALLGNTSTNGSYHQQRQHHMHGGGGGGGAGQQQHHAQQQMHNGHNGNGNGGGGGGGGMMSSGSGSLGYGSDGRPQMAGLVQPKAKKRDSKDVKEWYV

| Substance | Kd [µM] |
| --- | --- |
| Drosophila Spn-PDZ domain (dmSpn residues 1,258-1,347) (domain or fragment) | 50 |
| Drosophila Syd-1-PDZ domain (dmSyd-1 residues 155-242) (domain or fragment) | 5 |
